# Data from publication PMC10879569, “Major cardiovascular events under biologic psoriasis therapies: a 19-year real-world analysis of FAERS data” (Frontiers in Immunology, 2024).
# Assays:
# [1] = tested on: active psoriatic arthritis; settings: in vivo; cited from earlier work
# [2] = set-up: method as in PMID 22011907, PMID 21862748; settings: 2011; cited from earlier work
# [3] = tested on: psoriasis; settings: in vivo; cited from earlier work
# [4] = tested on: patients with psoriasis indication; assay: FAERS disproportionality analysis (PRR and MGPS/EBGM) of MACEs reporting versus other psoriasis treatments; type: in vivo; settings: compared among the biological classes
# Description: FAERS collects […] of drug adverse events reports worldwide submitted by health professionals, consumers, and manufacturers. We chose the FAERS dataset as the data source for this study, and the analytical period was from January 2004 to December 2022. To enhance the reliability and validity of our results, only records submitted by professional health workers (e.g., physicians, pharmacists, and other health professionals) were included. To avoid potential confounders in causality assessments such as indication, the analysis was refined by retaining only reports with an expanded psoriasis indication. The raw FAERS data were cleaned, mapped, de-duplicated, and normalized by SQL server Data Mining.
# The names are listed in Supplementary Table S1 .
# Inclusion of reports was limited to only those cases where a biologic drug was identified as “the primary suspect” or”secondary suspect”. The control groups were comprised of the population who were indicated with psoriasis and receiving other psoriasis systemic therapies except biological agents. […]
# This study is a case–non-case study. […] Disproportionality analysis (proportional reporting ratio, PRR) and MGPS were calculated to identify drug–event combinations with reporting rates higher than expected versus other drugs among patients with psoriasis indication. […]
# [5] = in vivo; cited from earlier work
substance,measurement,setting,value
Secukinumab,MACEs reported in the treatment group,[1],two
briakinumab,"fate of clinical trials after reports of serious cardiovascular adverse events (e.g., myocardial infarction, cardiac death)",[2],discontinued before marketing
Ixekizumab,MACEs events reported in the treatment group,[3],two
Adalimumab,MACEs reported in the treatment group,[1],none
Ustekinumab,"reporting rate for the four SMQs (myocardial infarction, stroke, cardiac fatality, death)",[4],highest reporting rate for all four SMQs
Risankizumab,cardiac disorders as share of serious adverse events suspected of being caused by the drug,[5],10.9%
